# Values joined by “and” are separate entries in the source; they are usually repeats but may differ in a detail not shown here. Equal values may be shown once.
# T1: Recombinant Human TRANCE/RANKL/TNFSF 11 (human, UniProt O14788 69-317)
# T1 construct: extracellular domain
# T1 sequence (looked up): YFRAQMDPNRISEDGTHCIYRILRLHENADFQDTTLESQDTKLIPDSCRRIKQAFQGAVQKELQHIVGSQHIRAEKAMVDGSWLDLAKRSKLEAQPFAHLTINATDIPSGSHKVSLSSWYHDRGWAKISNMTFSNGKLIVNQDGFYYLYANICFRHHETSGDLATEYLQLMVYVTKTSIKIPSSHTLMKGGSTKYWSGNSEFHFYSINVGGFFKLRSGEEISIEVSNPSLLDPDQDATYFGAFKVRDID
# T2: Recombinant Human IL-6 sR (human, UniProt P08887 20-358, limits assumed)
# T2 construct: domain: IL-6 sR; soluble receptor; also called IL-6R
# T2 sequence (looked up): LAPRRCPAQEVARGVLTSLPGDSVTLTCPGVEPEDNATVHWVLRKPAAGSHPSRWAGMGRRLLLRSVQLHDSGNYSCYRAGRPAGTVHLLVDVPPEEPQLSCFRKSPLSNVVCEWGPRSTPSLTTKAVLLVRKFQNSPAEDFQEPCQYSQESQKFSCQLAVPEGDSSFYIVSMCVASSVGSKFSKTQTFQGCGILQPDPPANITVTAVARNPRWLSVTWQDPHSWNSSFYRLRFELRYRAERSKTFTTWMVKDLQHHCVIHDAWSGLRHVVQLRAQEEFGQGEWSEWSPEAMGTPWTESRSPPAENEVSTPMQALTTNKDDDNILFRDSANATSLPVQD
# T3: IL-6R on cells (UniProt P08887 20-468, limits assumed)
# T3 sequence (looked up): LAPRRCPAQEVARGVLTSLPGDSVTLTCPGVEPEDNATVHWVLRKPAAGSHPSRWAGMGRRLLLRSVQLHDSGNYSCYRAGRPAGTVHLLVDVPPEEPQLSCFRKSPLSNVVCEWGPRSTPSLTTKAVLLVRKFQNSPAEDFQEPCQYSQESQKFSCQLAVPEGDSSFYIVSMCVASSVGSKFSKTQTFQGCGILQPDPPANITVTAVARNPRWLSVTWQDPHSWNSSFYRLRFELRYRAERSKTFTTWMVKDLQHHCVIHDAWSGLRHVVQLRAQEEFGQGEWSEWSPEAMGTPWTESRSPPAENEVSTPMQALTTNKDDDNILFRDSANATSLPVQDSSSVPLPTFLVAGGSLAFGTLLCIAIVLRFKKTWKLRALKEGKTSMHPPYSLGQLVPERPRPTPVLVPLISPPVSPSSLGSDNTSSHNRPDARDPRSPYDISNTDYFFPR
# T4: Recombinant Human IL-4 (human, UniProt P05112 25-153)
# T4 sequence (looked up): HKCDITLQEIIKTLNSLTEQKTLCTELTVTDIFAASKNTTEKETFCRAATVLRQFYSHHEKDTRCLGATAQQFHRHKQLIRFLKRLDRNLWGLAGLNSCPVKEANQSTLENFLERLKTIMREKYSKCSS
# B1: AB051 (antibody, human IgG1, kappa, V domains shown)
# VH: EVTLRESGPGLVKPTQTLTLTCTLYGFSLSTSDMGVDWIRQPPGKGLEWLAHIWWDDVKRYNPALKSRLTISKDTSKNQVVLKLTSVDPVDTATYYCARTVSSGYIYYAMDYWGQGTLVTVSS
# VL: DIQMTQSPSSLSASVGDRVTISCRASQDIRNYLNWYQQKPGKAPKLLIFYTSKLHSGVPSRFSGSGSGTDYTLTISSLQPEDIATYYCQQGLTPPLTFGGGTKVEIKR
# notes: vectors V1 and V2
# B2: DVD126 (bispecific antibody, human IgG1, kappa)
# heavy: not shown
# light: EIVLTQSPGTLSLSPGERATLSCRASQSVRGRYLAWYQQKPGQAPRLLIYGASSRATGIPDRFSGSGSGTDFTLTISRLEPEDFAVFYCQQYGSSPRTFGQGTKVEIKRTVAAPEIVLTQSPDFQSVTPKEKVTITCRASQSIGSSLHWYQQKPDQSPKLLIKYASQSFSGVPSRFSGSGSGTDFTLTINSLEAEDAAAYYCHQSSSLPFTFGPGTKVDIKRTVAAPSVFIFPPSDEQLKSGTASVVCLLNNFYPREAKVQWKVDNALQSGNSQESVTEQDSKDSTYSLSSTLTLSKADYEKHKVYACEVTHQGLSSPVTKSFNRGEC
# notes: outer AB018, inner AB032; vectors V1, V2
# B3: AB054 (antibody, human IgG1, kappa, V domains shown)
# VH: EVQLQESGPGLVRPSQTLSLTCTVSGYSITSDHAWSWVRQPPGRGLEWIGYISYSGITTYNPSLKSRVTMLRDTSKNQFSLRLSSVTAADTAVYYCARSLARTTAMDYWGQGSLVTVSS
# VL: DIQMTQSPSSLSASVGDRVTITCRASQDISSYLNWYQQKPGKAPKLLIYYTSRLHSGVPSRFSGSGSGTDFTFTISSLQPEDIATYYCQQGNTLPYTFGQGTKVEIKR
# notes: vectors V1 and V2; also called anti-IL-6R parent antibody
# B4: DVD129 (bispecific antibody, human IgG1, kappa)
# heavy: not shown
# light: DIQMTQSPSSLSASVGDRVTITCRASQDISSYLNWYQQKPGKAPKLLIYYTSRLHSGVPSRFSGSGSGTDFTFTISSLQPEDIATYYCQQGNTLPYTFGQGTKVEIKRTVAAPEIVLTQSPGTLSLSPGERATLSCRASQSVRGRYLAWYQQKPGQAPRLLIYGASSRATGIPDRFSGSGSGTDFTLTISRLEPEDFAVFYCQQYGSSPRTFGQGTKVEIKRTVAAPSVFIFPPSDEQLKSGTASVVCLLNNFYPREAKVQWKVDNALQSGNSQESVTEQDSKDSTYSLSSTLTLSKADYEKHKVYACEVTHQGLSSPVTKSFNRGEC
# notes: vectors V1, V2; also called IL-6R and RANKL DVD-Ig
# B5: AB027 (antibody, human IgG1, kappa, V domains shown)
# VH: QVTLRESGPALVKPTQTLTLTCTFSGFSLSTSGMGVSWIRQPPGKGLEWLAHIYWDDDKRYNPSLKSRLTISKDTSRNQVVLTMTNMDPVDTATYYCARRETVFYWYFDVWGRGTPVTVSS
# VL: DIVLTQSPSSLSASVGDRVTITCKASQSVDYDGDSYMNWYQQKPGKAPKLLIYAASNLESGIPSRFSGSGSGTDFTFTISSLQPEDIATYYCQQSNEDPPTFGQGTKVEIKR
# notes: vectors V1 and V2; also called anti-IL-4 parent antibody
# B6: AB056 (antibody, human IgG1, kappa, V domains shown)
# VH: QVQLQQSGAELMKPGASVKLSCKATGYTFTGSWIEWIKQRPGHGLEWIGQILPGSGSAYYNEKFKGKATFTADTSSKTVYIQLISLTTEDSAIYYCAREDNYGSSSLAYWGQGTLLTVSA
# VL: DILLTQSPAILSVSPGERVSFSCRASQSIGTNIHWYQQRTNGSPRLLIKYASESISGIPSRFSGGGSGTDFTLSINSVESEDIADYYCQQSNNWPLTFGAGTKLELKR
# notes: vectors V1 and V2
# Experiments:
# Recombinant Human IL-13 [1] = target: T5, Recombinant Human IL-13 (human, UniProt P35225 35-146, limits assumed); experiment: cell-based or functional assay
# T5 sequence (P35225 35-146 limits assumed): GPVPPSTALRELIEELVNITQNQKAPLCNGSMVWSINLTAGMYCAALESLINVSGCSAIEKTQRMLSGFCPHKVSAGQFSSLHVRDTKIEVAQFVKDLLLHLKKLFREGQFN
# Recombinant Human IL-13 [2] = target: T5, Recombinant Human IL-13; experiment: Biacore SPR
# Procedure: (§1) The BIACORE assay (Biacore, Inc, Piscataway, N.J.) determines the affinity of antibodies or DVD-Ig with kinetic measurements of on-rate and off-rate constants. Binding of antibodies or DVD-Ig to a target antigen (for example, a purified recombinant target antigen) is determined by surface plasmon resonance-based measurements with a BiacoreR 1000 or 3000 instrument (Biacore® AB, Uppsala, Sweden) using running HBS-EP (10 mM HEPES [pH 7.4], 150 mM NaCl, 3 mM EDTA, and 0.005% surfactant P20) at 25° C. All chemicals are obtained from Biacore® AB (Uppsala, Sweden) or otherwise from a different source as described in the text. For example, approximately 5000 RU of goat anti-mouse IgG, (Fcγ), fragment specific polyclonal antibody (Pierce Biotechnology Inc, Rockford, Ill.) diluted in 10 mM sodium acetate (pH 4.5) is directly immobilized across a CM5 research grade biosensor chip using a standard amine coupling kit according to manufacturer's instructions and procedures at 25 μg/ml. Unreacted moieties on the biosensor surface are blocked with ethanolamine. Modified carboxymethyl dextran surface in flowcell 2 and 4 is used as a reaction surface. Unmodified carboxymethyl dextran without goat anti-mouse IgG in flow cell 1 and 3 is used as the reference surface. For kinetic analysis, rate equations derived from the 1:1 Langmuir binding model are fitted simultaneously to association and dissociation phases of all eight injections (using global fit analysis) with the use of Biaevaluation 4.0.1 software. Purified antibodies or DVD-Ig are diluted in HEPES-buffered saline for capture across goat anti-mouse IgG specific reaction surfaces. Antibodies or DVD-Ig to be captured as a ligand (25 μg/ml) are injected over reaction matrices at a flow rate of 5 μl/min. The association and dissociation rate constants, kₒₙ (M⁻¹s⁻¹) and koff (s⁻¹) are determined under a continuous flow rate of 25 μl/min. Rate constants are derived by making kinetic binding measurements at different antigen concentrations ranging from […]. The equilibrium dissociation constant (M) of the reaction between antibodies or DVD-Igs and the target antigen is then calculated from the kinetic rate constants by the following formula: KD=koff/kₒₙ. Binding is recorded as a function of time and kinetic rate constants are calculated.
# Recombinant Human IL-1β [3] = target: T6, Recombinant Human IL-1β (human, UniProt P01584 117-269); experiment: direct bind ELISA
# T6 construct: also called IL-1b; IL-1B
# Procedure: (§2) Enzyme Linked Immunosorbent Assays to screen for antibodies that bind a desired target antigen were performed as follows. High bind ELISA plates (Corning Costar # 3369, Acton, Mass.) were coated with 100 μL/well of 10 μg/ml of desired target antigen (R&D Systems, Minneapolis, Minn.) or desired target antigen extra-cellular domain/FC fusion protein (R&D Systems, Minneapolis, Minn.) or monoclonal mouse anti-polyhistidine antibody (R&D Systems # MAB050, Minneapolis, Minn.) in phosphate buffered saline (10×PBS, Abbott Bioresearch Center, Media Prep# MPS-073, Worcester, Mass.) overnight at 4° C. Plates were washed four times with PBS containing 0.02% Tween 20. Plates were blocked by the addition of 300 μL/well blocking solution (non-fat dry milk powder, various retail suppliers, diluted to 2% in PBS) for ½ hour at room temperature. Plates were washed four times after blocking with PBS containing 0.02% Tween 20.
# (§3) Plates were washed 4 times with PBS containing 0.02% Tween 20.
# (§4) One hundred microliters of enhanced TMB solution (Neogen Corp. #308177, K Blue, Lexington, Ky.) was added to each well and incubated for 10 minutes at room temperature. The reaction was stopped by the addition of 50 μL 1N sulphuric acid. Plates were read spectrophotometrically at a wavelength of 450 nm.
# [4] = target: T1, Recombinant Human TRANCE/RANKL/TNFSF 11; experiment: direct bind ELISA
# Procedure: as §2, §3, §4
# Recombinant Human IL-1β [5] = target: T6, Recombinant Human IL-1β; experiment: cell-based or functional assay
# Recombinant Human IL-1β [6] = target: T6, Recombinant Human IL-1β; experiment: Biacore SPR
# Procedure: as §1
# [7] = target: T1, Recombinant Human TRANCE/RANKL/TNFSF 11; experiment: Biacore SPR
# Procedure: as §1
# [8] = target: T2, Recombinant Human IL-6 sR; experiment: direct bind ELISA
# Procedure: as §2, §3, §4
# IL-6R on cells [9] = target: T3, IL-6R on cells; experiment: cell-based or functional assay
# IL-6R on cells [10] = target: T3, IL-6R on cells; experiment: flow cytometry on cells, 2 µg/mL
# Procedure: Stable cell lines overexpressing a cell-surface antigen of interest or human tumor cell lines were harvested from tissue culture flasks and resuspended in phosphate buffered saline (PBS) containing 5% fetal bovine serum (PBS/FBS). Prior to staining, human tumor cells were incubated on ice with (100 μl) human IgG at 5 μg/ml in PBS/FCS. 1−5×10⁵ cells were incubated with antibody or DVD-Ig (2 μg/mL) in PBS/FBS for 30-60 minutes on ice. […] After 30 minutes incubation on ice, cells were washed twice and resuspended in PBS/FBS. Fluorescence was measured using a Becton Dickinson FACSCalibur (Becton Dickinson, San Jose, Calif.).
# The geometric mean is the n root of the multiplication product of n fluorescent signals (a1×a2×a3 . . . an). With log-transformed data the geometric mean is used to normalize the weighting of the data distribution.
# [11] = target: T2, Recombinant Human IL-6 sR; experiment: Biacore SPR
# Procedure: as §1
# Recombinant Human IL-4 [12] = target: T4, Recombinant Human IL-4; experiment: direct bind ELISA
# Procedure: as §2, §3, §4
# Recombinant Human IL-4 [13] = target: T4, Recombinant Human IL-4; experiment: cell-based or functional assay
# Recombinant Human IL-4 [14] = target: T4, Recombinant Human IL-4; experiment: Biacore SPR
# Procedure: as §1
# Recombinant Human IL-9 = Recombinant Human IL-9 (human, UniProt P15248 19-144); experiment: Biacore SPR
# Sequence of Recombinant Human IL-9 (P15248 19-144 limits assumed): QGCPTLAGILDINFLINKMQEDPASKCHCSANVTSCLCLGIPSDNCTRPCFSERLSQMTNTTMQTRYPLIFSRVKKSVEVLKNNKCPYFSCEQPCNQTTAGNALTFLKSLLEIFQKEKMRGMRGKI
# Procedure: as §1
binder,measurement,setting,value
B1,"IL-13 Neutralization Assay EC50 (A549 cells, hTARC)",Recombinant Human IL-13 [1],0.1 nM
same,kon,Recombinant Human IL-13 [2],2.14e+06 M⁻¹ s⁻¹
B2,EC50,Recombinant Human IL-1β [3],4460 nM
same,EC50,[4],0.4 nM
same,"IL-1β Neutralization Assay EC50 (MRC5 cells, hIL-8)",Recombinant Human IL-1β [5],4.29 nM
same,Kd,Recombinant Human IL-1β [6],< 0.117 nM
same,koff,Recombinant Human IL-1β [6],< 1e-06 s⁻¹
same,kon,Recombinant Human IL-1β [6],8520 M⁻¹ s⁻¹
same,Kd,[7],< 0.00877 nM
same,koff,[7],< 1e-06 s⁻¹
same,kon,[7],114000 M⁻¹ s⁻¹
B3,EC50,[8],1.42 nM and 1.24 nM and 1.31 nM
same,"IL-6 induced pSTAT3 in TF-1 cells, EC50",IL-6R on cells [9],70 pM
same,FACS Geometric Mean,IL-6R on cells [10],5.94
same,Kd,[11],0.614 nM
same,koff,[11],0.000206 s⁻¹
same,kon,[11],336000 M⁻¹ s⁻¹
B4,EC50,[8],0.96 nM
same,EC50,[4],0.53 nM
same,"IL-6 induced pSTAT3 in TF-1 cells, EC50",IL-6R on cells [9],0.16 nM
same,FACS Geometric Mean,IL-6R on cells [10],8.43
B5,EC50,Recombinant Human IL-4 [12],5.81 nM
same,"IL-4 Neutralization Assay EC50 (A549 cells, hTARC)",Recombinant Human IL-4 [13],0.21 nM
same,Kd,Recombinant Human IL-4 [14],0.0219 nM
same,koff,Recombinant Human IL-4 [14],0.00013 s⁻¹
same,kon,Recombinant Human IL-4 [14],5.92e+06 M⁻¹ s⁻¹
B6,Kd,Recombinant Human IL-9,0.00993 nM
same,koff,Recombinant Human IL-9,5.62e-05 s⁻¹
same,kon,Recombinant Human IL-9,5.66e+06 M⁻¹ s⁻¹
